Data as given in US20170253633A1 (IMMATICS BIOTECHNOLOGIES, published 2017).
Non-standard residues stand in square brackets, D forms with d. No end group written: not given here. pS = N[C@@H](COP(=O)(O)O)C(=O)O

How the values were obtained:
HLA-A*02:01 [1] = molecular target: T1, HLA-A*02:01 (human); test: UV-ligand exchange + anti-b2m ELISA; ++++ = peptide exchange yield >75%
T1 construct: MHC monomer first loaded with a UV-sensitive peptide, which is cleaved by UV and exchanged with the test peptide; captured on streptavidin plates; also called peptide-receptive MHC molecules
From the text: (§1) Candidate peptides for T cell based therapies according to the present invention were further tested for their MHC binding capacity (affinity). The individual peptide-MHC complexes were produced by UV-ligand exchange, where a UV-sensitive peptide is cleaved upon UV-irradiation, and exchanged with the peptide of interest as analyzed. Only peptide candidates that can effectively bind and stabilize the peptide-receptive MHC molecules prevent dissociation of the MHC complexes. To determine the yield of the exchange reaction, an ELISA was performed based on the detection of the light chain (β2m) of stabilized MHC complexes. The assay was performed as generally described in Rodenko et al. (Rodenko et al., 2006).
(§2) 96 well MAXISorp plates (NUNC) were coated over night with 2 ug/ml streptavidin in PBS at room temperature, washed 4× and blocked forth at 37° C. in 2% BSA containing blocking buffer. Refolded HLA-A*02:01/MLA-001 monomers served as standards, covering the range of 15-500 ng/ml. Peptide-MHC monomers of the UV-exchange reaction were diluted 100 fold in blocking buffer. Samples were incubated for 1 h at 37° C., washed four times, incubated with 2 ug/ml HRP conjugated anti-β2m for 1 h at 37° C., washed again and detected with TMB solution that is stopped with […]. Absorption was measured at 450 nm. Candidate peptides that show a high exchange yield (preferably higher than 50%, most preferred higher than 75%) are generally preferred for a generation and production of antibodies or fragments thereof, and/or T cell receptors or fragments thereof, as they show sufficient avidity to the MHC molecules and prevent dissociation of the MHC complexes.

HLA-A*02:01 [2] = molecular target: T1, HLA-A*02:01; test: UV-ligand exchange + anti-b2m ELISA; +++ = peptide exchange yield >50
From the text: as §1, §2

Row | peptide exchange yield (HLA-A*02:01 [1]) [%] | peptide exchange yield (HLA-A*02:01 [2]) [%] | Binder
1 | > 75 | – | ILTSIQSLL (genes: UBE2A, UBE2B)
2 | – | 50 to 75 | RVISSVISV (gene: ELTD1)
3 | – | 50 to 75 | ALIGDDVGL (gene: C17orf85)
4 | – | 50 to 75 | ALDPASISV (gene: DCUN1D1)
5 | > 75 | – | YLPDSLTQL (gene: LRRC1)
6 | > 75 | – | ILEPSLYTV (gene: COPZ1)
7 | – | 50 to 75 | ALLDEQQVNVLL (gene: ID1)
8 | > 75 | – | SMFGAGLTV (gene: ATP6V0B)
9 | > 75 | – | SLFDGIATGL (gene: DNMT3A)
10 | – | 50 to 75 | FLI[pS]LIISV (gene: TAS2R9) [FLIJLIISV]
11 | > 75 | – | TLTSKLYSL (gene: UQCR10)
12 | – | 50 to 75 | ALASLENHV (gene: TRIM33)
13 | > 75 | – | GVALTVTGV (gene: FLOT2)
14 | > 75 | – | YLARIQGFQV (gene: STAU2)
15 | > 75 | – | ILLQASVQV (gene: TMPRSS4)
16 | > 75 | – | GLWHGMFANV (gene: DIP2B)
17 | – | 50 to 75 | ALADGVPVAL (gene: AP5B1)
18 | > 75 | – | SLDVVNLLV (gene: ANKRD50)
19 | > 75 | – | YTLSKTEFL (gene: S100A11)
20 | > 75 | – | NLAGVYSEV (gene: DRG1)
21 | – | 50 to 75 | QMFEGQILDV (gene: AIM1L)
22 | – | 50 to 75 | FLDPATPRV (gene: TGIF1)
23 | – | 50 to 75 | ILLDTPLFLL (gene: SERHL2)
24 | > 75 | – | ALLDGRVQL (gene: AGRN)
25 | – | 50 to 75 | LLDLIQTKV (genes: AP2B1, AP1B1)
26 | > 75 | – | AMAELRVVV (gene: CYP4F22)
27 | > 75 | – | FVFEPPPGV (gene: DYNC1H1)

Row | peptide exchange yield (HLA-A*02:01 [1]) [%] | peptide exchange yield (HLA-A*02:01 [2]) [%] | Binder
28 | > 75 | – | KLWGQSIQL (gene: SWT1)
29 | – | 50 to 75 | SLDKGTLYI (gene: PLBD1)
30 | – | 50 to 75 | NLDAATYQV (gene: SLC35A3)
31 | > 75 | – | SIAAYNPVV (gene: DHRS2)
32 | > 75 | – | SLLGGITVV (gene: SPAG9)
33 | > 75 | – | GLDPLGYEIQL (gene: NUP107)
34 | – | 50 to 75 | AVVSSVNTV (gene: SNCG)
35 | – | 50 to 75 | NLHNSYYSV (gene: CCNG2)
36 | > 75 | – | SLLRVGWSV (genes: BSCL2, HNRNPUL2)
37 | > 75 | – | GLALLYSGV (gene: ATP6V0B)
38 | – | 50 to 75 | SLFTGLRSI (genes: DUOX2, DUOX1)
39 | – | 50 to 75 | GLYEGLDWL (genes: ARF3, TRIM23, ARF1, ARF4)
40 | – | 50 to 75 | HLLDSKVPSV (gene: ITGB4)
41 | – | 50 to 75 | KLTNGIWVL (gene: AP1B1)
42 | – | 50 to 75 | ILDEMRAQL (gene: OAS3)
43 | – | 50 to 75 | GMTELYFQL (gene: PRKDC)
44 | – | 50 to 75 | YLIGLDPENLAL (gene: CROT)
45 | > 75 | – | TLGVIPESV (gene: USP48)
46 | – | 50 to 75 | ALSFSSSAGPGLLKA (gene: KRT7)
47 | – | 50 to 75 | TVGPGLLGV (gene: VWF)
48 | > 75 | – | ALFPHLLQPVL (gene: CSE1L)
49 | > 75 | – | YILEGEPGKV (gene: SRP68)
50 | – | 50 to 75 | LLQEGEVYSA (gene: PRPF8)
51 | > 75 | – | GLIDSLMAYV (gene: PKP1)
52 | – | 50 to 75 | SLQSFIHGV (gene: TMC7)
53 | > 75 | – | YLDEIPPKFSM (gene: TACSTD2)
54 | – | 50 to 75 | YLFPETEFI (gene: TBX3)
